Assay results: US20060094663A1 (VALORISATION RECHERCHE SOCIETE EN COMMANDITE, published 2006)
One block for each binder: values may come before it. Where no end group is shown, it is not given here. [ ]: non-standard residue; d: D form. dOrn = NCCC[C@@H](N)C(=O)O

How the values were obtained:
Assay in all cases: cell-based or functional assay
[1] = target: T1, IL-1R/IL-1RacP receptor on human cells (human, UniProt P14778 18-569; Q9NPH3 21-570)
T1 sequence (looked up) 1: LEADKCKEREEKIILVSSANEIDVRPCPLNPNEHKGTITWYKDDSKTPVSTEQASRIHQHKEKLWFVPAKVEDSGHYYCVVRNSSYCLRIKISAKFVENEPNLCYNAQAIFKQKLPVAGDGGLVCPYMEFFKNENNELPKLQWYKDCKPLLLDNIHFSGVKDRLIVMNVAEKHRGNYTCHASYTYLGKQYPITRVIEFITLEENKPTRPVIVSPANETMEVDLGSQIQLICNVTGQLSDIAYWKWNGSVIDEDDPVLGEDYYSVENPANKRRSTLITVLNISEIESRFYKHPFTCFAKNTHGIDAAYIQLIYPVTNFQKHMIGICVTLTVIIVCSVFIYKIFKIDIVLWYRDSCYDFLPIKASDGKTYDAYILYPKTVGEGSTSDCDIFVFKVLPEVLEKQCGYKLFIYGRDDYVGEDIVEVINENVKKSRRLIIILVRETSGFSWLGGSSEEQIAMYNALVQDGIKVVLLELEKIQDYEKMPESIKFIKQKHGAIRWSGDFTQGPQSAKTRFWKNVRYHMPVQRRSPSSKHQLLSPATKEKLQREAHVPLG
T1 sequence (looked up) 2: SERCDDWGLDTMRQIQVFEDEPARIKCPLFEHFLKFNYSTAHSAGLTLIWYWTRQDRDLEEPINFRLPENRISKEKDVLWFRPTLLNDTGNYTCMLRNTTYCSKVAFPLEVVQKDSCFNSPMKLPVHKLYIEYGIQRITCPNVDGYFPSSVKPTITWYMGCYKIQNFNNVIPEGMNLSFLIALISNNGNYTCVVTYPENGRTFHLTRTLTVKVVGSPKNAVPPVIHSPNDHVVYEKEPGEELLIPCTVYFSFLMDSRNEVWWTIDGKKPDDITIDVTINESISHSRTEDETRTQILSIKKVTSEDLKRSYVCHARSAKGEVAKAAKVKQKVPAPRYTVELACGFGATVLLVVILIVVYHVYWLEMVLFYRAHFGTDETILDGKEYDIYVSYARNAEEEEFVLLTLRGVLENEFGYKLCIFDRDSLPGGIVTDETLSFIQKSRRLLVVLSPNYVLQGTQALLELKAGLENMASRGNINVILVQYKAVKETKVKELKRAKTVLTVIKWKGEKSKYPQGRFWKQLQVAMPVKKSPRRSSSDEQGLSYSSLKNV

[2] = target: T1, IL-1R/IL-1RacP receptor on human cells; remark: listed apart in the source
[3] = target: T2, IL-1R/IL-1RacP receptor on porcine cells and vessels (porcine (piglet), UniProt A0A5G2QSI4 18-572)
T2 sequence (A0A5G2QSI4 entry or part of it): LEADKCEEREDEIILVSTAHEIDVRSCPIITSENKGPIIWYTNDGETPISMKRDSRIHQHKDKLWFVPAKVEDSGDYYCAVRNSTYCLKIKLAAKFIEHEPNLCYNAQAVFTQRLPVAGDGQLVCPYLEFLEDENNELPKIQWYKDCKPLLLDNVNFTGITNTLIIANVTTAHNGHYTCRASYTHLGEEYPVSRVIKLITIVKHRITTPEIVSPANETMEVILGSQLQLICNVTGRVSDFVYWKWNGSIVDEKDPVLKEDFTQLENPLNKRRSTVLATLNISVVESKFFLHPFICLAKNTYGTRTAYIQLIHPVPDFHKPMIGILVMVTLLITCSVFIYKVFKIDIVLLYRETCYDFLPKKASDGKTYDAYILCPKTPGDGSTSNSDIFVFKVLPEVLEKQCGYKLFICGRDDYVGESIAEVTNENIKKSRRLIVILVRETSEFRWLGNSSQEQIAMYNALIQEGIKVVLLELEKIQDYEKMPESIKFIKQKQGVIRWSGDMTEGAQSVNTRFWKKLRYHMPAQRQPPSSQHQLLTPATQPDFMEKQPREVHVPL

[4] = target: T1, IL-1R/IL-1RacP receptor on human cells; remark: listed apart in the source
[5] = target: T2, IL-1R/IL-1RacP receptor on porcine …; remark: listed apart in the source
[6] = target: IL-1R/IL-1RacP receptor (cells or tissue whose species is not stated)

Binder: [dR][dY][dT][dV][dQ][dL][dA] [API-101.103]
IC50, IL-1-induced PGE2 synthesis, human WI-38 cells [2]: 0.05 pM

Binder: [dR][dY][dT][dV][dE][dL][dA] [API-101.10]
IC50, IL-1-induced PGE2 synthesis, WI-38 cells [2]: 0.2 nM
percent of IL-1β-induced proliferation of WI-38 human lung fibroblasts abolished [2]: 100%
IC50, IL-1-induced PGE2 synthesis, endothelial cells [3]: 1.2 nM
IC50, IL-1-induced vasodilation (ex vivo vasomotricity, protocol of Example 1) [3]: 10.8 nM
fold potency against API-101, IL-1-induced vasodilation (ex vivo) [3]: 100 fold

Binder: [dY][dT][dV][dE][dL][dA] [API-101.11]
percent of IL-1β-induced proliferation of WI-38 human lung fibroblasts abolished [2]: 100%

Binder: [dR][dW][dT][dP][dE][dL][dA] [API-101.116]
Emax (%), IL-1β-induced proliferation in TF-1 cells (human) [4]: 75%
IC50, IL-1β-induced proliferation in TF-1 cells (human) [4]: 0.5 nM
Emax (%), IL-1β-induced PGE2 synthesis in endothelial cells (porcine) [5]: 45%
IC50, IL-1β-induced PGE2 synthesis in endothelial cells (porcine) [5]: 0.013 nM

Binder: [dOrn][dY][dT][dP][dE][dL][dA] [API-101.115]
Emax (%), IL-1β-induced proliferation in TF-1 cells (human) [4]: 100%
IC50, IL-1β-induced proliferation in TF-1 cells (human) [4]: ~0.001 nM

Binder: [dK][dY][dT][dP][dE][dL][dA] [API-101.114]
Emax (%), IL-1β-induced PGE2 synthesis in endothelial cells (porcine) [5]: 50%
IC50, IL-1β-induced PGE2 synthesis in endothelial cells (porcine) [5]: 0.002 nM

Binder: [dR][dY][dT][dP][dE][dL][dA] [API-101.107]
IC50, IL-1-induced PGE2 synthesis, human WI-38 cells [2]: 0.1 pM
IC50 (FIG. 15; cell type not given) [6]: 0.0012 nM

Binder: [dA][dP][dR][dY][dT][dV][dE][dL][dA] [API-101]
IC50, IL-1-induced PGE2 synthesis, WI-38 cells [2]: 790 nM
IC50, effect of IL-1β (10 ng/ml) on proliferation of A549 carcinoma cells, 3H-thymidine [2]: 1000 nM
percent of IL-1β-induced proliferation of WI-38 human lung fibroblasts abolished [2]: 65%
IC50, IL-1-induced PGE2 synthesis, endothelial cells [3]: 220 nM
IC50, IL-1-induced PGE2 synthesis, microvascular endothelial cells [3]: 1000 nM
IC50, IL-1β-induced vasodilation of piglet pial vessels (ex vivo) [3]: 182 nM

Binder: [dR][dY][dT][dP][dE][dL] [API-101.113]
Emax (%), IL-1β-induced PGE2 synthesis in endothelial cells (porcine) [5]: 80%
IC50, IL-1β-induced PGE2 synthesis in endothelial cells (porcine) [5]: 0.0074 nM

Further lines, results first:

Emax (%), IL-1β-induced TF-1 proliferation [1]: < 30%
Binder: [dR][dF][dV][dP][dE][dL][dA] [API-101.127]

Emax (%), IL-1β-induced TF-1 proliferation [1]: 100%
IC50, IL-1β-induced TF-1 proliferation [1]: 3 nM
Binder: [dR][dW][dT][dP][dE][dL] [API-101.128]

Emax (%), IL-1β-induced TF-1 proliferation [1]: 0%
Binder: [dOrn][dY][dT][dP][dE][dL] [API-101.126]

Emax (%), IL-1β-induced TF-1 proliferation [1]: < 10%
Binder: [dK][dY][dT][dP][dE][dL] [API-101.133]

Emax (%), IL-1β-induced PGE2 synthesis in endothelial cells (porcine) [5]: 100%
IC50, IL-1β-induced PGE2 synthesis in endothelial cells (porcine) [5]: 0.01 nM
Binder: [dR][dY][dT][dP][dD][dL][dA] [API-101.117]

Emax (%), IL-1β-induced TF-1 proliferation [1]: 50%
IC50, IL-1β-induced TF-1 proliferation [1]: 400 nM
Binder: [dR][dY][dT][dP][dE][dV] [API-101.129]
